Measurements taken from patent US20250376511A1 (Sanofi, published 2025).
Residue numbers refer to the chain shown, from its start. Like-named read-outs stand apart in the source and are kept apart here.

T1: Human active C1s (Complement Technology) (human, UniProt P09871 16-688)
T1 construct: In the functional assays the target is the C1s of human serum; also called aC1s; human aC1s
T1 sequence: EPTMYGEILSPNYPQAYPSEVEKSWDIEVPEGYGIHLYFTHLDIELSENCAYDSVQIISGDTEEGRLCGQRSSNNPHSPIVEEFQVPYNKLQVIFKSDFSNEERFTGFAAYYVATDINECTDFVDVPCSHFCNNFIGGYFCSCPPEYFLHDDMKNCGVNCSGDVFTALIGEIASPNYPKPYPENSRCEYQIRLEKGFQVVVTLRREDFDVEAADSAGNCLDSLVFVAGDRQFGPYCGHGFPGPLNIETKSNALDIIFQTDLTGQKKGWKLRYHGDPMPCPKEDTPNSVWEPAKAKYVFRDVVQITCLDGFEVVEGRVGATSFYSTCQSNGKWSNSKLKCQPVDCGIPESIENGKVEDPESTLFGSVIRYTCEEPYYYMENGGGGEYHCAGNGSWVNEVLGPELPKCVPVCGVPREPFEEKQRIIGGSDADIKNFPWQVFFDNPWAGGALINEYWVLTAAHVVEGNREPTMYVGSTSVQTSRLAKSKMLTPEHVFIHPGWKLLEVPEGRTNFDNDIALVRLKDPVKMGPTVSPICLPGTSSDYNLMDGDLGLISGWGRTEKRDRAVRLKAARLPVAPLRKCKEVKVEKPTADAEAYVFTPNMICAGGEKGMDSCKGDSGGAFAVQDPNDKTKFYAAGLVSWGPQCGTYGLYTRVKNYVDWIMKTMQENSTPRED

B1: SAR445088 (antibody, V domains shown)
VH: QVQLVQSGAEVKKPGASVKLSCTASGFNIKDDYIHWVKQAPGQGLEWIGRIDPADGHTKYAPKFQVKVTITADTSTSTAYLELSSLRSEDTAVYYCARYGYGREVFDYWGQGTTVTVSS
VL: DIVLTQSPDSLAVSLGERATISCKASQSVDYDGDSYMNWYQQKPGQPPKILIYDASNLESGIPARFSGSGSGTDFTLTISSLEPEDFAIYYCQQSNEDPWTFGGGTKVEIK
modifications: sulfated tyrosine (Y36) on the light chain
notes: Bivalent monospecific anti-aC1s antibody; also called BIVV020; the wild-type antibody
B2: aC1s_088 × 531v25 IgG1-NNAS/dK (bispecific antibody, V domains shown)
VH 1: B1 VH with Q39E
VL 1: B1 VL with Q42K
VH 2: QVQLVQSGAEVKKPGASVKVSCKASGYTFTRYYLNWVRKAPGQGLEWIGMIDPSVSETHYAQKFQGRATLTVDKSTSTAYMELSSLRSEDTAVYYCSQIRLPYYYAMDSWGQGTTVTVSS
VL 2: DIQMTQSPSSLSASVGDRVTITCRASQDISSFLNWYQEKPGKAPKLLIYYTSRLQSGVPSRFSGSGSGTDYTLTISSLQPEDFATYYCQQGNTLPRTFGGGTKVEIK
notes: IgG1-NNAS Fc, dK, with charge pairing mutations; The starred variable domains are used, as for m5
B3: aC1s_088 IgG1-dK (antibody, V domains shown)
VH: B1 VH
VL: B1 VL
B4: aC1s_D32E IgG1-dK (antibody, V domains shown)
VH: B1 VH
VL: B1 VL with D32E
modifications: Y36 sulfation: Yes
B5: aC1s_088 × 531v25.v6 IgG1-NNAS/dK (bispecific antibody, V domains shown)
VH 1: B1 VH with Q39E
VL 1: B1 VL with Q42K
VH 2: B2 VH 2
VL 2: B2 VL 2 with S30E
notes: as for B2
B6: aC1s_D32S IgG1-dK (antibody, V domains shown)
VH: B1 VH
VL: B1 VL with D32S
notes: Bivalent monospecific human IgG1

Columns and labels:
[1] = molecular target: T1, Human active C1s (Complement Technology); test: SPRi Carterra LSA, antibody captured on protein A/G, human active C1s as analyte, 25 C, 1:1 fit
Protocol: C1s binding using surface plasmon resonance (SPRi): Analysis of active C1s binding was performed on a Carterra LSA SPRi instrument at 25° C. Protein A/G (Sigma) diluted in 25 mM MES pH 6.0, 0.05% Tween-20 running buffer was covalently immobilized to an HC200M sensor chip using amine coupling. Antibodies were diluted to 0.2 μg/mL in HBS-EP+ buffer and printed in duplicate to the protein A/G surface in the capture 96-array format for 5 min followed by a 1 min baseline in buffer. Human active C1s (Complement Technology) was serially diluted […] from 1 μM to 0.781 nM in running buffer and injected over the captured antibodies for 5 min with a 5 min dissociation time. The surface was regenerated with 10 mM glycine pH 1.5 with two 30 sec injections. Sensorgrams were processed with the Carterra® K.I.T. Inspection Tool and fit to a 1:1 binding model to obtain kinetic constants.
Three variants were selected as viable engineered alternatives to the wild-type anti-aC1s sequence: D32E, D32S, and D32Y. The three variants were expressed as bivalent monospecific anti-aC1s antibodies with human IgG1 and their affinity for aC1s tested by surface plasmon resonance (Table 5).

[2] = molecular target: T1, Human active C1s (Complement Technology); test: cell-based or functional assay
[3] = molecular target: T1, Human active C1s (Complement Technology); test: cell-based or functional assay; remark: listed apart in the source
[4] = molecular target: T1, Human active C1s (Complement Technology); test: cell-based or functional assay; remark: listed apart in the source
[5] = molecular target: T1, Human active C1s (Complement Technology); test: cell-based or functional assay; remark: listed apart in the source
[6] = molecular target: T2, His-tagged recombinant human TfR (produced in-house) (human, UniProt P02786 89-760); test: SPR Biacore T200, His-tagged human TfR captured on anti-His, antibody as analyte, 25 C, 1:1 fit
T2 construct: also called hTfR; transferrin receptor 1
Protocol: (§1) TfR and C1s binding using surface plasmon resonance (SPR): Analysis of antibody binding to TfR was performed on a Biacore™ T200 instrument using anti-His capture at 25° C. Anti-His (Qiagen) was buffer exchanged into PBS pH 7.2, diluted to 25 μg/mL in 10 mM sodium acetate pH 4.0 and directly immobilized to a series S CM5 chip to a surface density of ˜10,000 RU using the amine coupling kit provided by Cytiva. His-tagged recombinant human TfR (produced in-house) was diluted in HBS-EP+ pH 7.4 running buffer (10 mM HEPES pH 7.4, 150 mM NaCl, 3 mM EDTA, 0.05% surfactant P20) and injected for 5 sec at 20 μL/min flowrate to obtain capture level of 20 RU. Antibodies were serially diluted 2-fold from 90 to 5.625 nM in running buffer and injected over the captured TfR for 3 min followed by 9 min dissociation in buffer at 30 μL/min. Each cycle was regenerated with 10 mM glycine pH 1.5. To measure C1s binding, anti-human Fc (Jackson) was directly immobilized to a CM5 chip using amine chemistry. Antibodies were diluted to 2.5 μg/mL in HBS-EP+ pH 7.4 and captured to the chip for 15 sec at 20 μL/min flowrate. Human active C1s (Complement Technology) was serially diluted 2-fold from 20 to 0.625 nM in running buffer and injected over the captured antibodies for 180 sec at 50 μL/min followed by 9 min dissociation in buffer. The bound complex was removed from the chip each cycle with 40 mM HCl and 0.85% phosphoric acid. Sensorgrams were processed using the Biacore™ Insight software and fit to a 1:1 binding model to obtain kinetic constants.
(§2) The six bispecific anti-aC1s/anti-TfR antibodies were first tested for their affinity for both TfR and aC1s via surface plasmon resonance (SPR) (Table 2).

[7] = molecular target: T1, Human active C1s (Complement Technology); test: SPR Biacore T200, antibody captured on anti-human Fc, human active C1s as analyte, 1:1 fit
Protocol: as §1, §2

T2 sequence (P02786 89-760 limits assumed): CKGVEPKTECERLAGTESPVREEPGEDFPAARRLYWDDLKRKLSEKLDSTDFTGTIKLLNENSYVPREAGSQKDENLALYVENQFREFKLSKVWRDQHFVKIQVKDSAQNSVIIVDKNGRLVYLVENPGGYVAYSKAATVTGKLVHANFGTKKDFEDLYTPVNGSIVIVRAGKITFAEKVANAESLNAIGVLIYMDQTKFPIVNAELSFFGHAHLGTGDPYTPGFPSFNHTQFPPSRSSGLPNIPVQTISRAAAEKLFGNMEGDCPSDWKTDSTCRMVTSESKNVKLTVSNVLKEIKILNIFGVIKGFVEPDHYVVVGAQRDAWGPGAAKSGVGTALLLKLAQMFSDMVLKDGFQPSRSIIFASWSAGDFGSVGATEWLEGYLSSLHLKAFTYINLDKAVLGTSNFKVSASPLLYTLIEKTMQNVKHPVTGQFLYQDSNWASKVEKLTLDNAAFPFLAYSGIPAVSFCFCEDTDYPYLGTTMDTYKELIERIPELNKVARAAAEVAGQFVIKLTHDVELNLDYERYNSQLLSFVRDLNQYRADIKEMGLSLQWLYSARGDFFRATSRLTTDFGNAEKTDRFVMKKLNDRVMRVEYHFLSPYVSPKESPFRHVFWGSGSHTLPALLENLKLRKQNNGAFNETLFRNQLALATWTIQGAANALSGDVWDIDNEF

Row | Binder | Kd [1] [nM] | koff [1] [s⁻¹] | kon [1] [M⁻¹ s⁻¹] | IC50, Wieslab Complement Pathway Assay (classical pathway, 1% NHS) [2] [µg/mL] | IC50, Wieslab Complement Pathway Assay (batch 1) [3] [µg/mL] | IC50, Wieslab Complement Pathway Assay (batch 2) [3] [µg/mL] | IC50, Wieslab Complement Pathway Assay (classical pathway, 1% NHS) [4] [µg/mL] | IC50, C3d deposition on neurons in iPSC tricultures with serum [5] [µg/mL] | Kd [6] [nM] | koff [6] [s⁻¹] | kon [6] [M⁻¹ s⁻¹] | Kd [7] [nM] | koff [7] [s⁻¹] | kon [7] [M⁻¹ s⁻¹]
1 | B1 | 2.5 | 0.0033 | 1.3e+06 | 0.77 | 0.45 | 0.63 | 1.07 |  |  |  |  |  |  | 
2 | B2 |  |  |  | 2.02 |  |  |  | 29.7 | 24.6 | 0.0049 | 199000 | 0.68 | 0.00285 | 4.22e+06
3 | B3 |  |  |  |  |  |  | 0.84 |  |  |  |  |  |  | 
4 | B4 | 2.5 | 0.0032 | 1.3e+06 |  |  |  | 1.36 |  |  |  |  |  |  | 
5 | B5 |  |  |  | 1.78 |  |  |  | 12.8 | 20.3 | 0.00332 | 164000 | 0.69 | 0.00272 | 3.96e+06
6 | B6 | 7.3 | 0.0065 | 890000 |  |  |  | 10.7 |  |  |  |  |  |  | 
